Assay results: US20240317847A1 (Bayer, published 2024)
Positions count from the first letter of the chain named. Names and notes keep the numbering of the source. Values belong to the binder of their own block, whether it stands above or below them.

Tests used:
human IL-11 [1] = target: T1, human IL-11 (human, UniProt P20809 22-199); assay: cell-based or functional assay
T1 sequence: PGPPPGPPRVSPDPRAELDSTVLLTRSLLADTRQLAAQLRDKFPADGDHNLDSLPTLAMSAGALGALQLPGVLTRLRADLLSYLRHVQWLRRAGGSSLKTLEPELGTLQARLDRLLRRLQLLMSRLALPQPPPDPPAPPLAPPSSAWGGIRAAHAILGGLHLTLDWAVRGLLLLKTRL

murine IL-11 [2] = target: T2, murine IL-11 (mouse, UniProt P47873 22-199); assay: cell-based or functional assay
T2 sequence: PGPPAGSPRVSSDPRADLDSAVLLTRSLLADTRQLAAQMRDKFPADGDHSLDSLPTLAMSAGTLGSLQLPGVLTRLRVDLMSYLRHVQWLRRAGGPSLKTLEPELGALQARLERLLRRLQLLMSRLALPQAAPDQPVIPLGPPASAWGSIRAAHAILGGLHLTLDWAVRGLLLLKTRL

human IL-11 [3] = target: T1, human IL-11; assay: SPR (Biacore), 25 C, antibody captured via anti-Fc, IL-11 as analyte
Experimental: (§1) To assess the binding kinetics and affinity of anti-IL-11 bispecific antibodies as well as their species cross-reactivity profile, binding assays were conducted using surface plasmon resonance (SPR). […] Antibodies were captured either via anti-human Fc IgGs (“Human antibody capture kit”, Order No. BR100839, Cytiva) or via anti-mouse Fc IgGs (“Mouse antibody capture kit, Order No. BR100383, Cytiva) covalently amine coupled to a Series S CM5 sensor chip (Cytiva) depending on the isotype. The amine coupling was carried out according to the manufacturer's instructions using 1-ethyl-3-(3-dimethylaminopropyl) carbodiimide hydrochloride (EDC), N-hydroxysuccinimide (NHS) and ethanolamine HCl, pH 8.5 (“Amine Coupling Kit” BR-1000-50, Cytiva.). Human, mouse, cynomolgus or rat IL-11 was used as analyte at several dilutions within the concentration range from 0.05-200 nM. For binding assays with only one concentration 200 nM IL-11 was used. The sensor surface was regenerated with glycine pH 1.7 after each antigen injection. Obtained sensorgrams were double referenced (subtraction of reference flow cell signal and buffer injection) and were fitted to a 1:1 Langmuir binding model to derive kinetic data using the Biacore T200 Evaluation software or the Biacore Insight software.
(§2) If no value is reported, there was either no binding or very low binding and multiphasic binding behavior.

murine IL-11 [4] = target: T2, murine IL-11; assay: as above
Experimental: as §1, §2

cynomolgus IL-11 = target: T3, cynomolgus IL-11 (cynomolgus, UniProt P20808 22-199); assay: as above
T3 construct: Invigate recombinant protein; also called cIL11; Macaca IL-11
T3 sequence: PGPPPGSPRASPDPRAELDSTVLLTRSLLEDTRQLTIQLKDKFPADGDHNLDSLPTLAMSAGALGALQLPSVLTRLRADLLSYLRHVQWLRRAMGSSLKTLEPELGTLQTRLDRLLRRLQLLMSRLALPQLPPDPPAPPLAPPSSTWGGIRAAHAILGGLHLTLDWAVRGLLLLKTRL
Experimental: as §1, §2

rat IL-11 = target: T4, rat IL-11 (rat, UniProt Q99MF5 22-199); assay: as above
T4 construct: Invigate recombinant protein; also called rIL11
T4 sequence: T2 sequence with S50N, L84F, G94A, V137A, I138V
Experimental: as §1, §2

human IL2Ra = target: T5, human IL2Ra (human, UniProt P01589 22-240, limits assumed); assay: ELISA on coated IL2Ra, signal ratio to isotype control at 1E-07 M antibody
T5 construct: coated on the ELISA plate; also called IL-2 receptor alpha
T5 sequence (looked up): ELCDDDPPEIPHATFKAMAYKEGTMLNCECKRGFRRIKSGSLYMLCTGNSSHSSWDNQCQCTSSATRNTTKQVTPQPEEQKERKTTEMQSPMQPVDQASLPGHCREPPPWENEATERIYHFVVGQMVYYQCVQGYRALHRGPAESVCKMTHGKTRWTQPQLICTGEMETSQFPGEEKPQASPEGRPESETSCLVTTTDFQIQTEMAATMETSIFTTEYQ
Experimental: IL2RA (Peprotech, Germany, #200-02RC) was coated at 1 or 0 μg/ml (buffer only control) in 30 μl coating buffer (Candor, #113500) per well on a 384 well microtiter plate (Maxisorb, Nunc, #460518) over night at 4-8° C. After two washes with 50 μl/well washing buffer (PBS+0.05% Tween, pH 7.4), the plates were incubated for two hours at room temperature with 50 μl/well SmartBlock (Candor, #113500). After blocking, the plates were washed three times with washing buffer. Then, a dilution series of the respective antibody (1E-7 [M] down to 2E-13 [M]) in PBS+0.05% Tween, 10% SmartBlock were added in 30 μl to the microtiter plate and incubated for 90 min at room temperature. After three additional washes, 30 μl anti mouse IgG HRP-conjugated antibody (Biotechne, HAF007), diluted 1:1000 in PBS+0.05% Tween (pH 7.4), were added per well and incubated for one hour. After three additional washes, a mixture of Amplex red (Invitrogen, #12222, 10 mM stock solution in DMSO) 1:1000 diluted in PBS and H2O2 (30%, Merck, #107209)) diluted 1:10000 in PBS were added as substrate with 30 μl per well and incubated for 20 min in the dark. Relative fluorescence was measured with a microtiter plate reader at 535/590 nm.
Bispecific antibodies were subjected to the experimental assay procedure described in Example 20. Ratios of the signals generated at an antibody concentration of 1E-07 [M] by the respective bispecific antibody versus those of an isotype control antibody were calculated and are shown in Table E29. The bispecific antibodies show no binding to IL-2 Ra.

murine IL-11 [5] = target: T2, murine IL-11; assay: Di-complex ELISA, murine IL11RA-Fc binding to immobilized mIL-11, competition
Experimental: (§3) In the Di-complex ELISA format anti IL-11 antibodies are tested for the ability to interfere with the formation of complexes consisting of immobilized murine IL-11 (Invigate, e.g., lot #C210819-09) or human IL-11 (Invigate, e.g., lot #C121021-19), and murine IL11RA-Fc fusion proteins or canine IL11RA-human-Fc fusion protein (FIG. 17a, b).
(§4) Bispecific antibodies were subjected to the experimental assay procedure described in Example 18 and IC50 [M], respectively efficacy (%) were calculated accordingly.

human IL-11 [6] = target: T1, human IL-11; assay: Tri-complex ELISA, hIL-11 + mIL-11Ra-Fc + hgp130-Fc, inhibition of complex formation
Experimental: (§5) In the Tri-complex ELISA format IL-11 antibodies are tested for their ability to inhibit the formation of a complex consisting of murine or human gp130-Fc fusion protein, with murine or human IL-11, and a murine IL11RA-Fc fusion protein. The assay format was adapted according to FIG. 18 (a, b), depending on whether murine or human IL-11 IgG antibodies were tested.
(§6) Bispecific antibodies were subjected to the experimental assay procedure described in Example 19 and IC50 [M], respectively efficacy (%) were calculated accordingly.

murine IL-11 [7] = target: T2, murine IL-11; assay: Tri-complex ELISA, mIL-11 + mIL-11Ra-Fc + mgp130-Fc, inhibition of complex formation
Experimental: as §5, §6

human IL-11 [8] = target: T1, human IL-11; assay: Di-complex ELISA, canine IL11RA-hFc binding to immobilized hIL-11, competition
Experimental: as §3, §4

murine IL-11 [9] = target: T2, murine IL-11; assay: Di-complex ELISA, canine IL11RA-hFc binding to immobilized mIL-11, competition
Experimental: as §3, §4

[10] = target: T6, human IL-11 (Invigate, e.g., lot #C121021-19) (human, UniProt P20809 22-199); assay: ELISA, receptor-Fc titrated on biotinylated IL-11 captured on streptavidin plate; species of IL-11 not said
T6 construct: Bought protein; also called hIL-11; hIL11
T6 sequence: T1 sequence

[11] = target: T7, murine IL-11 (Invigate, e.g., lot #C210819-09) (mouse, UniProt P47873 22-199); assay: as above
T7 construct: Bought protein; biotinylated where captured on streptavidin plates; also called mIL-11; mIL11
T7 sequence: T2 sequence

Efficacy (%), Stat3 reporter gene assay (human IL-11 [1]): 102%
IC50, Stat3 reporter gene assay (human IL-11 [1]): 0.31 nM
Efficacy (%), Stat3 reporter gene assay (murine IL-11 [2]): 93.9%
IC50, Stat3 reporter gene assay (murine IL-11 [2]): 1 nM
Kd (human IL-11 [3]): 0.011 nM
Kd (murine IL-11 [4]): 0.005 nM
Kd (cynomolgus IL-11): 0.025 nM
Kd (rat IL-11): 0.0026 nM
Ratio IL-2Ra Binding Signal Antibody/Isotype Control (human IL2Ra): 852 ratio
IC50 (murine IL-11 [5]): 35 nM
Efficacy (%) (human IL-11 [6]): 105%
IC50 (human IL-11 [6]): 6.28 nM
Efficacy (%) (murine IL-11 [7]): 94%
IC50 (murine IL-11 [7]): 1.81 nM
B1: TPP-20489 (bispecific antibody, IgG1)
chain 1: not shown
chain 2: EVQLLESGGGLVQPGGSLRLSCAASGFTFSHYDMNWLRQAPGKGLEWVGVISYDGSNKFYADFVKGRFTISRDNSKNTLYLQMNSLRAEDTAVYYCARTPGSHFDYWGQGTLVTVSSGGGGSGGGGSGGGGSQSVLTQPPSASGTPGQRVTISCSGSSSNIGNNAVNWYQQLPGTAPKLLIYYDDLLPSGVPDRFSGSKSGTSASLAISGLRSEDEADYYCSAWDDSLNGVVFGGGTKLTVLGGGGSGGGGSGGGGSGVECPPCPAPELLGGPSVFLFPPKPKDTLMISRTPEVTCVVVDVSHEDPEVKFNWYVDGVEVHNAKTKPREEQYNSTYRVVSVLTVLHQDWLNGKEYKCKVSNKALPAPIEKTISKAKGQPREPQVCTLPPSRDELTKNQVSLSCAVKGFYPSDIAVEWESNGQPENNYKTTPPVLDSDGSFFLVSKLTVDKSRWQQGNVFSCSVMHEALHNHYTQKSLSLSPG
notes: scFv-kih-hIgG1

Efficacy (%), Stat3 reporter gene assay (human IL-11 [1]): 88.5%
IC50, Stat3 reporter gene assay (human IL-11 [1]): 0.65 nM
Efficacy (%), Stat3 reporter gene assay (murine IL-11 [2]): 96.9%
IC50, Stat3 reporter gene assay (murine IL-11 [2]): 1.8 nM
Kd (human IL-11 [3]): 0.083 nM
Kd (murine IL-11 [4]): 0.046 nM
Kd (cynomolgus IL-11): 0.074 nM
Kd (rat IL-11): 0.045 nM
Ratio IL-2Ra Binding Signal Antibody/Isotype Control (human IL2Ra): 146 ratio
IC50 (human IL-11 [8]): 6.3 nM
IC50 (murine IL-11 [9]): 4.1 nM
Efficacy (%) (human IL-11 [6]): 98%
IC50 (human IL-11 [6]): 1.28 nM
Efficacy (%) (murine IL-11 [7]): 98%
IC50 (murine IL-11 [7]): 0.258 nM
B2: TPP-26195 (bispecific antibody, IgG1)
chain 1: EVQLLESGGGLVQPGGSLRLSCAASGFTFSSYGMHWVRQAPGKGLEWVSVISYDGSYKYYADSVKGRFTISRDNSKNTLYLQMNSLRAEDTAVYYCAAGVPDYWGQGTLVTVSSGGGGSGGGGSGGGGSQSVLTQPPSASGTPGQRVTISCTGSSSNIGAGYDVHWYQQLPGTAPKLLIYSNNERPSGVPDRFSGSKSGTSASLAISGLRSEDEADYYCAAWDDSLNGPVFGGGTKLTVLGGGGSGGGGSGGGGSGVECPPCPAPPVAGPSVFIFPPKPKDVLTITLTPKVTCVVVDISKDDPEVQFSWFVDDVEVHTAQTQPREEQFNSTFRSVSELPIMHQDWLNGKEFKCRVNSAAFPAPIEKTISKTKGRPKAPQVYTIPPPKEQMAKDKVSLWCMITDFFPEDITVEWQWNGQPAENYKNTQPIMDTDGSYFVYSKLNVQKSNWEAGNTFTCSVLHEGLHNHHTEKSLSHSPGK
chain 2: EVQLLESGGGLVQPGGSLRLSCAASGFTFSHYDMNWLRQAPGKGLEWVGVISYDGSNKFYADFVKGRFTISRDNSKNTLYLQMNSLRAEDTAVYYCARTPGSHFDYWGQGTLVTVSSGGGGSGGGGSGGGGSQSVLTQPPSASGTPGQRVTISCSGSSSNIGNNAVNWYQQLPGTAPKLLIYYDDLLPSGVPDRFSGSKSGTSASLAISGLRSEDEADYYCSAWDDSLNGVVFGGGTKLTVLGGGGSGGGGSGGGGSGVECPPCPAPPVAGPSVFIFPPKPKDVLTITLTPKVTCVVVDISKDDPEVQFSWFVDDVEVHTAQTQPREEQFNSTFRSVSELPIMHQDWLNGKEFKCRVNSAAFPAPIEKTISKTKGRPKAPQVYTIPPPKEQMAKDKVSLSCAITDFFPEDITVEWQWNGQPAENYKNTQPIMDTDGSYFVVSKLNVQKSNWEAGNTFTCSVLHEGLHNHHTEKSLSHSPGK
notes: scFv-kih-mIgG1

EC50 [10]: ~2 nM
EC50 [11]: ~2 nM
B3: canine IL11RA-human-Fc fusion protein (Sino Biological, #70078-D02H) (Fc fusion)
chain: SPCPQAWGPPGVQYGQPGRSMTLCCPGVTAGAPVSWFRDGETRLLQGPDSGLGHELVLAQADSTDEGTYICRTLDGALGGIVTLQLGYPPARPVVSCQAADYENFSCTWSPSQVSGLPTRYLTSYRKKTVPGADGQRMSPSTGPWPCPQDPPGAARCVVHGAEFWSQYRINVTEVNPLGTSTRLLDVSLQSILRPDPPQGLRVESVPGYPRRLRASWTYPASWPRQPHFLLRFRLQYRPAQHPAWSTVEPAGLEEVITDAVAGLPHAVRVSARDFLDAGTWSAWSPEAWGTPSTGSLPKEIPAGGQPRKQLEEEPQADSPTPPRPSLLPDPRPLDQRDPLEQIAVLA
notes: Used in the Di-complex ELISA when murine IgGs were tested; also called canine IL11RA-Fc; Canine IL-11Ra fused to human Fc; not shown: human Fc (and any linker) of the bought fusion protein, Sino Biological #70078-D02H
